Test results from paper PMC2782394.

Target: T1, ROS3 (Arabidopsis thaliana, UniProt Q9FGT1 1-748)
T1 sequence: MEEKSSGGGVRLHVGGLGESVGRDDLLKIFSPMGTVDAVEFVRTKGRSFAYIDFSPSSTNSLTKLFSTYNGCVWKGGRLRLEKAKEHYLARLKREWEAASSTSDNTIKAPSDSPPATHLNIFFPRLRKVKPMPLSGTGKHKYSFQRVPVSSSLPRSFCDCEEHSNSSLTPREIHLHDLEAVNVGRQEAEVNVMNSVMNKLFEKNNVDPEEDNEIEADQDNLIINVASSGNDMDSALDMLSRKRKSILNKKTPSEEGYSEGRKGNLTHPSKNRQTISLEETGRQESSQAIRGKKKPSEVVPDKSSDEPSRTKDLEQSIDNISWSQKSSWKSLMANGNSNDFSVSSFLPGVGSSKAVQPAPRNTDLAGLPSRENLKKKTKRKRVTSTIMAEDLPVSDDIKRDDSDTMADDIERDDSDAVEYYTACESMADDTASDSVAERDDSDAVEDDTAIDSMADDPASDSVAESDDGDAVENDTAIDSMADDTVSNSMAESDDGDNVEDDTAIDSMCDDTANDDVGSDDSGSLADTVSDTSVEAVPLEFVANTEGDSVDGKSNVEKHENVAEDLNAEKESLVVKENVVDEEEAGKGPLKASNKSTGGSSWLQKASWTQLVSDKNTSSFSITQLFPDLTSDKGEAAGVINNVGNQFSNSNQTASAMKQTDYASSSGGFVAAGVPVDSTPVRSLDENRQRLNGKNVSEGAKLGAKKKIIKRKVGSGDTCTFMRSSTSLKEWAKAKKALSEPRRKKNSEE
Assay: EMSA

B1: RNA (d) 25-nt (ssRNA)
RNA: UCGGGAGGGAAGCGGAUGGGGGCCG
binding result: binds

B2: RNA (c) 25-nt (ssRNA)
RNA: GGGAGUCCGGAGACGUCGGCGGGGG
binding result: binds
